{"source": "patent US20250042956A1", "about": "(University of California, published 2025)", "key": {"[1]": {"biological_target": "T1, AT5G08450.1 HDC1 (Arabidopsis thaliana)", "T1 construct": "Endogenous protein found by mass spectrometry", "assay": "IP-MS rep 1", "how_it_was_run": "(§1)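 Ten grams of unopened floral buds from Col-0 wild type and FLAG-tagged transgenic Arabidopsis lines were ground in liquid nitrogen, homogenised in 25 mL IP buffer and filtered through Miracloth. Lysates were incubated with 250 μL anti-FLAG M2 magnetic beads at 4° C for 2 hours, washed and eluted with TBS containing 250 μg/mL 3×FLAG peptides. Eluted proteins were precipitated with trichloroacetic acid and analysed by mass spectrometry to give peptide counts for co-purified proteins.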"}, "[2]": {"biological_target": "T2, AT5G67580.1 TRB2 (Arabidopsis thaliana, UniProt Q9FJW5 1-299)", "T2 construct": "Endogenous protein found by mass spectrometry", "T2 sequence": "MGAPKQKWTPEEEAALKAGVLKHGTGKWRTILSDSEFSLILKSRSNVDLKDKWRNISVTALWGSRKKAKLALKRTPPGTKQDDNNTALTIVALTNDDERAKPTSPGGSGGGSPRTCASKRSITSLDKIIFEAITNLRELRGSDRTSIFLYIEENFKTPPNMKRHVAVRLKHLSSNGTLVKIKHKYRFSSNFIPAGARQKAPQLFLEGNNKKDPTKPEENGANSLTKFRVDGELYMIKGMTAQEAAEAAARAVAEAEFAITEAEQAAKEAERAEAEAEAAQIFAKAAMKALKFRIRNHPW", "assay": "IP-MS rep 1", "how_it_was_run": "as §1"}}, "data": [{"binder": "TRBIP2 (bait of the TRBIP2 IP-MS) (other, not shown: small tags and cut ends, tag and its position not described; also called TRBIP2-1; TRBIP2-2) MATNACLESDSLLPPRKRLLAGFKNQNSRISNESPSPPFASSSSSTTTSNGSSASAVVHTHHLDHLLNDQTRSPEELAQASKATAALAVKVAKAARATANEKAIIASKAVAAAKNALELFASFPAAETVSCKEPRLIRAINNSPRVLTDCSGHRNKKQKTLTSTMNDGNDVAGVVDSDDGTRVNGKLLLCDNTLKEKTEEESSSLGKRRGRVKLPLSMCAYKDQENGITLEENNLSVSKSEGYNGGVAQVIERPSWKCQDLKSPECVKQNKVVRS", "values": [{"measurement": "IP-MS count", "setting": "[1]", "value": 2}, {"measurement": "IP-MS count", "setting": "[2]", "value": 43}]}]}
